# Measurements as given in the supplement of paper PMC6755084.
# B1: F1*; the commonest letter at each place (parent)
# chain: GAGACCGCAACTGAAAAGTTGTTATCACTTGTCGTAAGACACTTTGGATGGGTTGAAGTTCTGCACGTAGAAGCAAAAGGC
# Variants of: B1
# Experiment: fraction ligated after 30 min (ligated reads / total reads); higher = more ligase activity
# Settings: with F1*sub RNA substrate (template-directed ligation), 42 °C
# Protocol: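 Chip-synthesised pool of F1* ligase ribozyme variants (all single and double substitutions, single, double and triple deletions in the catalytic core and GAA bulge, plus designed variants) was transcribed with T7 and reacted as a pool with excess substrate F1*sub for 30 min at 42 C in 50 mM EPPS pH 8.5, 25 mM MgCl2. Ligated and unligated bands were separated by PAGE, barcoded by RT and deep sequenced; fraction ligated = ligated reads / total reads per variant, relative activity = FL / FL of wild type (0.826). Sequences are the DNA template of the ribozyme.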
row,Variant,fraction ligated
1,T29A G31T,0.845
2,C33T A57C,0.841
3,C33T A57G,0.861
4,T44G G55T,0.795
5,T23C A48G,0.696
6,T29A A36T,0.847
7,T44G A48T,0.782
8,C26G C28G,0.611
9,T32A A48C,0.727
10,C28G T45C,0.337
11,T29G C42G,0.839
12,G38C C42T,0.841
13,T43G A57C,0.809
14,T35C T45G,0.399
15,T43C G55A,0.803
16,C40T T43G,0.782
17,A36G C40T,0.861
18,C28T A41T,0.806
19,T29A,0.848
20,T25A G38T,0.375
21,G38T T44A,0.823

row,Variant,fraction ligated
1,C28A A37T,0.801
2,T45C G47C,0.31
3,A27C G38C,0.792
4,C28T A37G,0.8
5,C28T A37C,0.799
6,C26T G46T,0.758
7,C40T T44C,0.829
8,T30A A39T,0.81
9,G55A A57G,0.833
10,G38A A39T,0.829
11,A36G G46A,0.836
12,C26T G50T,0.238
13,A41G G50A,0.23
14,A27C G46A,0.82
15,C33G T44C,0.804
16,G31A A56G,0.687
17,A27T G47A,0.801
18,C40A T43C,0.768
19,T29C G31T,0.755
20,A27C G34C,0.808
21,T35G C40A,0.838

row,Variant,fraction ligated
1,A48C G55T,0.5
2,A36G A39C,0.791
3,T29G T49C,0.733
4,C26A T30G,0.802
5,C26A T30C,0.781
6,T29A G55C,0.79
7,A27G T32A,0.795
8,G31T G47A,0.246
9,G31T G47T,0.022
10,A24C G38C,0.274
11,C42G G55T,0.809
12,A56G A57G,0.807
13,T29C G55T,0.765
14,T30G G31C T32C A39G C40G A41C,0.846
15,T29C A36C,0.821
16,T29C G38A,0.803
17,T45G A48G,0.0747
18,C40G G55C,0.659
19,G31T G50C,0.0159
20,C42T G50T,0.808
21,A27G C33A,0.8

row,Variant,fraction ligated
1,T23A T25C,0.762
2,T43C T49A,0.638
3,C33G T43C,0.812
4,C28A A56T,0.784
5,A39C A41G,0.741
6,C28A C33G,0.813
7,T25A G31A,0.0494
8,T25A G31T,0.0308
9,A27C A48G,0.256
10,T32A G34A,0.809
11,T23G A41G,0.746
12,C40A G46C,0.817
13,C28T T30G,0.791
14,C28T T30C,0.805
15,T30A C40T,0.825
16,C28T A36T,0.799
17,A27G T49C,0.601
18,T30G C42T,0.817
19,A24T C28T,0.794
20,G34A C42T,0.865
21,G34A C42A,0.839
